Experimental findings from US20050070470A1 (ADMINISTRATORS OF THE TULANE EDUCATIONAL FUND, published 2005) are described below.

*1 amine or outer side, *2 acyl side, *3 side chain or, on linkers, in order; H or OH if unused. Bridges are numbered along the chain shown (N, C = ends). Where no end group is shown, it is not given here. [ ]: non-standard residue; d: D form. MTXCOO‑CH2CO = methotrexate-acetyl; 4Pal = N[C@@H](Cc1ccncc1)C(=O)O; Suc = O=C(CCC(=O)[*:2])[*:1]; hSer = N[C@@H](CCO)C(=O)O; Nle = CCCC[C@H](N)C(=O)O; Nva = CCC[C@H](N)C(=O)O; Abu = CC[C@H](N)C(=O)O

The target of the assay is somatostatin subtype 2 rat receptor (rat, UniProt P30680 1-369). The experiment in a line: cell-based or functional assay.
somatostatin subtype 2 rat receptor, sequence (P30680 whole entry): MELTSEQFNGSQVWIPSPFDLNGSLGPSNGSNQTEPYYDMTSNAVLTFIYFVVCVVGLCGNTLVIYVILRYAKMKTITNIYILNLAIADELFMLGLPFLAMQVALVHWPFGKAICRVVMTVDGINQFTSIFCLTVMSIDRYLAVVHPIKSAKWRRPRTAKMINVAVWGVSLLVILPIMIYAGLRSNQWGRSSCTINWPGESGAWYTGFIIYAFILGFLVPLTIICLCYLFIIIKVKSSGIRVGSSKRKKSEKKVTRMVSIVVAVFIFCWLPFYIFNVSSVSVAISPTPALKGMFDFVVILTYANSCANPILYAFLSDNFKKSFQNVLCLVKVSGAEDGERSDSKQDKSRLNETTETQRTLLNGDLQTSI

As for Succinate-[dS][dS][dS][dS][dS]S[dY][dS]CF[dW]KTCT-NH2 (disulfide 9-14), the “IC50 (nM), inhibition of GH release from primary cultures of rat pituitary cells” value (shortened to “IC50 (nM), inhibition of GH release”) was determined as 5.6 nM.

B1: D-Ser-D-Ser-D-Ser-D-Ser-D-Ser-L-4Pal-D-Tyr-D-Ser-cyclo[L-Cys-L-Phe-D-Trp-L-Lys-L-Thr-L-Cys]-L-Thr-NH2 (peptide)
peptide: [dS][dS][dS][dS][dS][4Pal][dY][dS]CF[dW]KTCT-NH2
modifications: disulfide 9-14; N-terminus assumed
SMILES: C[C@@H](O)[C@H](NC(=O)[C@@H]1CSSC[C@H](NC(=O)[C@@H](CO)NC(=O)[C@@H](Cc2ccc(O)cc2)NC(=O)[C@H](Cc2ccncc2)NC(=O)[C@@H](CO)NC(=O)[C@@H](CO)NC(=O)[C@@H](CO)NC(=O)[C@@H](CO)NC(=O)[C@H](N)CO)C(=O)N[C@@H](Cc2ccccc2)C(=O)N[C@H](Cc2c[nH]c3ccccc23)C(=O)N[C@@H](CCCCN)C(=O)N[C@@H]([C@@H](C)O)C(=O)N1)C(N)=O
For the molecule B1, the “IC50 (nM), inhibition of GH release” value was 0.18 nM.
The figure for {MTXCOO‑CH2CO}-[dS][dS][dS][dS][dS]K[dY][dY]CF[dW]KTCT-NH2 (cysteine pairing not given here) [MTXCOO-CH2CO-(D-Ser)5-Lys-D-Tyr-D-Tyr-Cys-Phe-D-Trp-Lys-Thr-Cys-Thr-NH2] is 0.16 nM.

B2: D-Ser-D-Ser-D-Ser-D-Ser-D-Ser-L-Thr-D-Tyr-D-Ser-cyclo[L-Cys-L-Phe-D-Trp-L-Lys-L-Thr-L-Cys]-L-Thr-NH2 (peptide)
peptide: [dS][dS][dS][dS][dS]T[dY][dS]CF[dW]KTCT-NH2
modifications: disulfide 9-14; N-terminus assumed
SMILES: C[C@@H](O)[C@H](NC(=O)[C@@H]1CSSC[C@H](NC(=O)[C@@H](CO)NC(=O)[C@@H](Cc2ccc(O)cc2)NC(=O)[C@@H](NC(=O)[C@@H](CO)NC(=O)[C@@H](CO)NC(=O)[C@@H](CO)NC(=O)[C@@H](CO)NC(=O)[C@H](N)CO)[C@@H](C)O)C(=O)N[C@@H](Cc2ccccc2)C(=O)N[C@H](Cc2c[nH]c3ccccc23)C(=O)N[C@@H](CCCCN)C(=O)N[C@@H]([C@@H](C)O)C(=O)N1)C(N)=O
On to B2, for which the “IC50 (nM), inhibition of GH release” value was 0.72 nM.

B3: Succinate-D-Asp-D-Ser-D-Ser-D-Ser-D-Ser-D-Ser-L-Thr-D-Tyr-D-Ser-cyclo[L-Cys-L-Phe-D-Trp-L-Lys-L-Thr-L-Cys]-L-Thr-NH2 (peptide)
peptide: Suc-[dD][dS][dS][dS][dS][dS]T[dY][dS]CF[dW]KTCT-NH2
modifications: disulfide 10-15
SMILES: C[C@@H](O)[C@H](NC(=O)[C@@H]1CSSC[C@H](NC(=O)[C@@H](CO)NC(=O)[C@@H](Cc2ccc(O)cc2)NC(=O)[C@@H](NC(=O)[C@@H](CO)NC(=O)[C@@H](CO)NC(=O)[C@@H](CO)NC(=O)[C@@H](CO)NC(=O)[C@@H](CO)NC(=O)[C@@H](CC(=O)O)NC(=O)CCC(=O)O)[C@@H](C)O)C(=O)N[C@@H](Cc2ccccc2)C(=O)N[C@H](Cc2c[nH]c3ccccc23)C(=O)N[C@@H](CCCCN)C(=O)N[C@@H]([C@@H](C)O)C(=O)N1)C(N)=O
B3: the “IC50 (nM), inhibition of GH release” value turned out to be 5.17 nM.

B4: D-Ser-D-Ser-D-Ser-D-Ser-D-Ser-L-Norleucine-D-Tyr-D-Ser-cyclo[L-Cys-L-Phe-D-Trp-L-Lys-L-Thr-L-Cys]-L-Thr-NH2 (peptide)
peptide: [dS][dS][dS][dS][dS][Nle][dY][dS]CF[dW]KTCT-NH2
modifications: disulfide 9-14; N-terminus assumed
SMILES: CCCC[C@H](NC(=O)[C@@H](CO)NC(=O)[C@@H](CO)NC(=O)[C@@H](CO)NC(=O)[C@@H](CO)NC(=O)[C@H](N)CO)C(=O)N[C@H](Cc1ccc(O)cc1)C(=O)N[C@H](CO)C(=O)N[C@H]1CSSC[C@@H](C(=O)N[C@H](C(N)=O)[C@@H](C)O)NC(=O)[C@H]([C@@H](C)O)NC(=O)[C@H](CCCCN)NC(=O)[C@@H](Cc2c[nH]c3ccccc23)NC(=O)[C@H](Cc2ccccc2)NC1=O
As for B4, the “IC50 (nM), inhibition of GH release” value came out at 0.094 nM.
Take mercaptoacetate-GG[dD][dS][dS][dS][dS][dS][4Pal][dY][dS]CF[dW]KTCT-NH2 (disulfide 12-17): the “IC50 (nM), inhibition of GH release” value stood at 0.97 nM.

B5: D-Ser-D-Ser-D-Ser-D-Ser-D-Ser-L-Lys-D-Tyr-D-Tyr-cyclo[L-Cys-L-Phe-D-Trp-L-Lys-L-Thr-L-Cys]-L-Thr-NH2 (peptide)
peptide: [dS][dS][dS][dS][dS]K[dY][dY]CF[dW]KTCT-NH2
modifications: disulfide 9-14; N-terminus assumed
SMILES: C[C@@H](O)[C@H](NC(=O)[C@@H]1CSSC[C@H](NC(=O)[C@@H](Cc2ccc(O)cc2)NC(=O)[C@@H](Cc2ccc(O)cc2)NC(=O)[C@H](CCCCN)NC(=O)[C@@H](CO)NC(=O)[C@@H](CO)NC(=O)[C@@H](CO)NC(=O)[C@@H](CO)NC(=O)[C@H](N)CO)C(=O)N[C@@H](Cc2ccccc2)C(=O)N[C@H](Cc2c[nH]c3ccccc23)C(=O)N[C@@H](CCCCN)C(=O)N[C@@H]([C@@H](C)O)C(=O)N1)C(N)=O
As for B5, the “IC50 (nM), inhibition of GH release” value was found to be 0.14 nM.

B6: D-Ser-D-Ser-D-Ser-D-Ser-D-Ser-L-Gln-D-Tyr-D-Ser-cyclo[L-Cys-L-Phe-D-Trp-L-Lys-L-Thr-L-Cys]-L-Thr-NH2 (peptide)
peptide: [dS][dS][dS][dS][dS]Q[dY][dS]CF[dW]KTCT-NH2
modifications: disulfide 9-14; N-terminus assumed
SMILES: C[C@@H](O)[C@H](NC(=O)[C@@H]1CSSC[C@H](NC(=O)[C@@H](CO)NC(=O)[C@@H](Cc2ccc(O)cc2)NC(=O)[C@H](CCC(N)=O)NC(=O)[C@@H](CO)NC(=O)[C@@H](CO)NC(=O)[C@@H](CO)NC(=O)[C@@H](CO)NC(=O)[C@H](N)CO)C(=O)N[C@@H](Cc2ccccc2)C(=O)N[C@H](Cc2c[nH]c3ccccc23)C(=O)N[C@@H](CCCCN)C(=O)N[C@@H]([C@@H](C)O)C(=O)N1)C(N)=O
As for B6, the “IC50 (nM), inhibition of GH release” value was 0.45 nM.
The figure for {MTXCOO‑CH2CO}-[dK][dY]K[dY][dK]CF[dW]KTCT-NH2 (cysteine pairing not given here) [MTXCOO-CH2CO-D-Lys-D-Tyr-Lys-D-Tyr-D-Lys-Cys-Phe-D-Trp-Lys-Thr-Cys-Thr-NH2] is 0.62 nM.

B7: D-Ser-D-Ser-D-Ser-D-Gln-D-Ser-D-Ser-D-Ser-D-Gln-D-Ser-D-Ser-D-Ser-D-Gln-L-Norvaline-D-Tyr-D-Ser-cyclo[L-Cys-L-Phe-D-Trp-L-Lys-L-Thr-L-Cys]-L-Thr-NH2 (peptide)
peptide: [dS][dS][dS][dQ][dS][dS][dS][dQ][dS][dS][dS][dQ][Nva][dY][dS]CF[dW]KTCT-NH2
modifications: disulfide 16-21; N-terminus assumed
SMILES: CCC[C@H](NC(=O)[C@@H](CCC(N)=O)NC(=O)[C@@H](CO)NC(=O)[C@@H](CO)NC(=O)[C@@H](CO)NC(=O)[C@@H](CCC(N)=O)NC(=O)[C@@H](CO)NC(=O)[C@@H](CO)NC(=O)[C@@H](CO)NC(=O)[C@@H](CCC(N)=O)NC(=O)[C@@H](CO)NC(=O)[C@@H](CO)NC(=O)[C@H](N)CO)C(=O)N[C@H](Cc1ccc(O)cc1)C(=O)N[C@H](CO)C(=O)N[C@H]1CSSC[C@@H](C(=O)N[C@H](C(N)=O)[C@@H](C)O)NC(=O)[C@H]([C@@H](C)O)NC(=O)[C@H](CCCCN)NC(=O)[C@@H](Cc2c[nH]c3ccccc23)NC(=O)[C@H](Cc2ccccc2)NC1=O
B7: the “IC50 (nM), inhibition of GH release” value turned out to be 0.93 nM.

B8: D-Gln-D-Gln-D-Gln-D-Gln-D-Gln-D-Gln-D-Gln-D-Gln-D-Gln-D-Gln-L-Lys-D-Tyr-D-Tyr-cyclo[L-Cys-L-Phe-D-Trp-L-Lys-L-Thr-L-Cys]-L-Thr-NH2 (peptide)
peptide: [dQ][dQ][dQ][dQ][dQ][dQ][dQ][dQ][dQ][dQ]K[dY][dY]CF[dW]KTCT-NH2
modifications: disulfide 14-19; N-terminus assumed
SMILES: C[C@@H](O)[C@H](NC(=O)[C@@H]1CSSC[C@H](NC(=O)[C@@H](Cc2ccc(O)cc2)NC(=O)[C@@H](Cc2ccc(O)cc2)NC(=O)[C@H](CCCCN)NC(=O)[C@@H](CCC(N)=O)NC(=O)[C@@H](CCC(N)=O)NC(=O)[C@@H](CCC(N)=O)NC(=O)[C@@H](CCC(N)=O)NC(=O)[C@@H](CCC(N)=O)NC(=O)[C@@H](CCC(N)=O)NC(=O)[C@@H](CCC(N)=O)NC(=O)[C@@H](CCC(N)=O)NC(=O)[C@@H](CCC(N)=O)NC(=O)[C@H](N)CCC(N)=O)C(=O)N[C@@H](Cc2ccccc2)C(=O)N[C@H](Cc2c[nH]c3ccccc23)C(=O)N[C@@H](CCCCN)C(=O)N[C@@H]([C@@H](C)O)C(=O)N1)C(N)=O
Turning to B8, the “IC50 (nM), inhibition of GH release” value was 0.24 nM.

B9: D-Ser-D-Ser-D-Ser-D-Ser-D-Ser-L-hSer-D-Tyr-D-Ser-cyclo[L-Cys-L-Phe-D-Trp-L-Lys-L-Thr-L-Cys]-L-Thr-NH2 (peptide)
peptide: [dS][dS][dS][dS][dS][hSer][dY][dS]CF[dW]KTCT-NH2
modifications: disulfide 9-14; N-terminus assumed
SMILES: C[C@@H](O)[C@H](NC(=O)[C@@H]1CSSC[C@H](NC(=O)[C@@H](CO)NC(=O)[C@@H](Cc2ccc(O)cc2)NC(=O)[C@H](CCO)NC(=O)[C@@H](CO)NC(=O)[C@@H](CO)NC(=O)[C@@H](CO)NC(=O)[C@@H](CO)NC(=O)[C@H](N)CO)C(=O)N[C@@H](Cc2ccccc2)C(=O)N[C@H](Cc2c[nH]c3ccccc23)C(=O)N[C@@H](CCCCN)C(=O)N[C@@H]([C@@H](C)O)C(=O)N1)C(N)=O
With B9, the “IC50 (nM), inhibition of GH release” value is 0.55 nM.
For the molecule succinate-[dS][dS][dS][dS][dS][Abu][dY][dS]CF[dW]KTCT-NH2 (disulfide 9-14), the “IC50 (nM), inhibition of GH release” value worked out at 0.61 nM.

B10: D-Ser-D-Ser-D-Ser-D-Ser-D-Ser-L-Lys-D-Tyr-D-Ser-cyclo[L-Cys-L-Phe-D-Trp-L-Lys-L-Thr-L-Cys]-L-Thr-NH2 (peptide)
peptide: [dS][dS][dS][dS][dS]K[dY][dS]CF[dW]KTCT-NH2
modifications: disulfide 9-14; not fully specified; printed as D-Ser-D-Ser-D-Ser-D-Ser-D-Ser-L-Lys-D-Tyr-D-Ser-cyclo[L-Cys-L-Phe-D-Trp-L-Lys-L-Thr-L-Cys]-L-Thr-NH2
Consider B10, for which the “IC50 (nM), inhibition of GH release” value is 0.086 nM.
succinate-[dD][dS][dS][dS][dS][dS][Nle][dY][dS]CF[dW]KTCT-NH2 (disulfide 10-15): the “IC50 (nM), inhibition of GH release” value came to 0.52 nM.
The figure for {3‑N,N‑dimethylaminobenzoyl}-[dS][dS][dS][dS][dS][dS][dS][dS][dS][dS][dS][dS][dS][dS][dS]K[dY][dY]CF[dW]KTCT-NH2 (disulfide 19-24) is 0.27 nM.

B11: D-Ser-D-Ser-D-Ser-D-Ser-D-Ser-L-Asp-D-Tyr-D-Ser-cyclo[L-Cys-L-Phe-D-Trp-L-Lys-L-Thr-L-Cys]-L-Thr-NH2 (peptide)
peptide: [dS][dS][dS][dS][dS]D[dY][dS]CF[dW]KTCT-NH2
modifications: disulfide 9-14; N-terminus assumed
SMILES: C[C@@H](O)[C@H](NC(=O)[C@@H]1CSSC[C@H](NC(=O)[C@@H](CO)NC(=O)[C@@H](Cc2ccc(O)cc2)NC(=O)[C@H](CC(=O)O)NC(=O)[C@@H](CO)NC(=O)[C@@H](CO)NC(=O)[C@@H](CO)NC(=O)[C@@H](CO)NC(=O)[C@H](N)CO)C(=O)N[C@@H](Cc2ccccc2)C(=O)N[C@H](Cc2c[nH]c3ccccc23)C(=O)N[C@@H](CCCCN)C(=O)N[C@@H]([C@@H](C)O)C(=O)N1)C(N)=O
In the case of B11, the “IC50 (nM), inhibition of GH release” value was 7.55 nM.
